{"source": "the supplement of paper PMC9112550", "about": "“Optimization of the antimicrobial peptide Bac7 by deep mutational scanning” (BMC Biology, 2022);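 further: peptides expressed intracellularly from a pBAD plasmid library in pooled LB shake-flask culture, induced with 0.3% L-arabinose, DNA abundance read by NGS, three biological replicates, DESeq2 with apeglm shrinkage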", "data": [{"test_system": "Escherichia coli TOP10", "assay": "shrunken log2 fold change of peptide-encoding DNA abundance (4.5 h post-induction vs induction); higher = less antimicrobial activity (less host growth inhibition)", "settings": "time post-induction: 4.5 h; library: site-saturation at positions 5, 18, 19, 20", "values": [{"sequence": "RRIRIRPPRLPRPRPRPGDAPRP", "shrunken log2 fold change": 0.0793}, {"sequence": "RRIRNRPPRLPRPRPRPEYTPRP", "shrunken log2 fold change": -0.0431}, {"sequence": "RRIRCRPPRLPRPRPRPFAWPRP", "shrunken log2 fold change": 0.0983}, {"sequence": "RRIRGRPPRLPRPRPRPTDKPRP", "shrunken log2 fold change": 0.705}, {"sequence": "RRIRARPPRLPRPRPRPGAVPRP", "shrunken log2 fold change": 0.578}, {"sequence": "RRIRVRPPRLPRPRPRPLINPRP", "shrunken log2 fold change": -0.354}, {"sequence": "RRIRVRPPRLPRPRPRPTHAPRP", "shrunken log2 fold change": 0.285}, {"sequence": "RRIRFRPPRLPRPRPRPPNSPRP", "shrunken log2 fold change": -0.544}, {"sequence": "RRIRERPPRLPRPRPRPDAAPRP", "shrunken log2 fold change": 0.635}, {"sequence": "RRIRNRPPRLPRPRPRPGSSPRP", "shrunken log2 fold change": 0.0992}, {"sequence": "RRIRERPPRLPRPRPRPEHVPRP", "shrunken log2 fold change": -0.017}, {"sequence": "RRIRRRPPRLPRPRPRPWHPPRP", "shrunken log2 fold change": 0.0925}, {"sequence": "RRIRCRPPRLPRPRPRPYTSPRP", "shrunken log2 fold change": -0.526}, {"sequence": "RRIRERPPRLPRPRPRPRHPPRP", "shrunken log2 fold change": -0.289}, {"sequence": "RRIRIRPPRLPRPRPRPCLAPRP", "shrunken log2 fold change": -0.693}, {"sequence": "RRIRFRPPRLPRPRPRPIDVPRP", "shrunken log2 fold change": -0.146}, {"sequence": "RRIRWRPPRLPRPRPRPKFWPRP", "shrunken log2 fold change": 0.0806}, {"sequence": "RRIRPRPPRLPRPRPRPRLCPRP", "shrunken log2 fold change": 0.646}, {"sequence": "RRIRVRPPRLPRPRPRPHITPRP", "shrunken log2 fold change": -0.643}, {"sequence": "RRIRPRPPRLPRPRPRPHNPPRP", "shrunken log2 fold change": -0.0801}, {"sequence": "RRIRDRPPRLPRPRPRPDGTPRP", "shrunken log2 fold change": 0.184}, {"sequence": "RRIRERPPRLPRPRPRPGVIPRP", "shrunken log2 fold change": -0.0985}, {"sequence": "RRIRQRPPRLPRPRPRPSHTPRP", "shrunken log2 fold change": -0.195}, {"sequence": "RRIRTRPPRLPRPRPRPGPCPRP", "shrunken log2 fold change": 0.219}, {"sequence": "RRIRHRPPRLPRPRPRPGADPRP", "shrunken log2 fold change": 0.255}, {"sequence": "RRIRMRPPRLPRPRPRPIKHPRP", "shrunken log2 fold change": -0.0825}, {"sequence": "RRIRLRPPRLPRPRPRPAYNPRP", "shrunken log2 fold change": -0.119}, {"sequence": "RRIRDRPPRLPRPRPRPKMWPRP", "shrunken log2 fold change": 0.123}, {"sequence": "RRIRNRPPRLPRPRPRPSGPPRP", "shrunken log2 fold change": -0.0894}, {"sequence": "RRIRDRPPRLPRPRPRPPANPRP", "shrunken log2 fold change": 0.0989}, {"sequence": "RRIRKRPPRLPRPRPRPGSFPRP", "shrunken log2 fold change": 0.133}, {"sequence": "RRIRQRPPRLPRPRPRPVRAPRP", "shrunken log2 fold change": 0.38}, {"sequence": "RRIRRRPPRLPRPRPRPMKRPRP", "shrunken log2 fold change": 0.0474}, {"sequence": "RRIRNRPPRLPRPRPRPAQIPRP", "shrunken log2 fold change": 0.603}, {"sequence": "RRIRFRPPRLPRPRPRPLFQPRP", "shrunken log2 fold change": -0.446}, {"sequence": "RRIRDRPPRLPRPRPRPTYQPRP", "shrunken log2 fold change": -0.0238}, {"sequence": "RRIRNRPPRLPRPRPRPFSHPRP", "shrunken log2 fold change": -0.015}, {"sequence": "RRIRKRPPRLPRPRPRPIRFPRP", "shrunken log2 fold change": -0.186}, {"sequence": "RRIRFRPPRLPRPRPRPVGSPRP", "shrunken log2 fold change": -0.0263}, {"sequence": "RRIRYRPPRLPRPRPRPGGRPRP", "shrunken log2 fold change": -0.019}, {"sequence": "RRIRQRPPRLPRPRPRPKKTPRP", "shrunken log2 fold change": -0.0104}, {"sequence": "RRIRWRPPRLPRPRPRPIWTPRP", "shrunken log2 fold change": 0.107}, {"sequence": "RRIRFRPPRLPRPRPRPRMSPRP", "shrunken log2 fold change": 0.000208}, {"sequence": "RRIRWRPPRLPRPRPRPGHQPRP", "shrunken log2 fold change": -0.0269}, {"sequence": "RRIRNRPPRLPRPRPRPTEDPRP", "shrunken log2 fold change": -0.187}, {"sequence": "RRIRDRPPRLPRPRPRPHNLPRP", "shrunken log2 fold change": 0.156}, {"sequence": "RRIRLRPPRLPRPRPRPMSVPRP", "shrunken log2 fold change": -0.18}, {"sequence": "RRIRRRPPRLPRPRPRPPINPRP", "shrunken log2 fold change": 0.0262}, {"sequence": "RRIRFRPPRLPRPRPRPDFMPRP", "shrunken log2 fold change": -0.27}, {"sequence": "RRIRVRPPRLPRPRPRPRRDPRP", "shrunken log2 fold change": 0.141}, {"sequence": "RRIRCRPPRLPRPRPRPTVHPRP", "shrunken log2 fold change": -0.413}, {"sequence": "RRIRFRPPRLPRPRPRPMLSPRP", "shrunken log2 fold change": -0.0375}, {"sequence": "RRIRSRPPRLPRPRPRPKYIPRP", "shrunken log2 fold change": -0.383}, {"sequence": "RRIRMRPPRLPRPRPRPYDTPRP", "shrunken log2 fold change": -0.171}, {"sequence": "RRIRKRPPRLPRPRPRPMIDPRP", "shrunken log2 fold change": 0.21}, {"sequence": "RRIRWRPPRLPRPRPRPPDKPRP", "shrunken log2 fold change": 0.423}, {"sequence": "RRIRFRPPRLPRPRPRPVCHPRP", "shrunken log2 fold change": -0.705}, {"sequence": "RRIRERPPRLPRPRPRPLPDPRP", "shrunken log2 fold change": -0.0462}, {"sequence": "RRIRVRPPRLPRPRPRPDPGPRP", "shrunken log2 fold change": -0.321}, {"sequence": "RRIRCRPPRLPRPRPRPEWRPRP", "shrunken log2 fold change": 0.391}, {"sequence": "RRIRWRPPRLPRPRPRPHARPRP", "shrunken log2 fold change": 0.516}, {"sequence": "RRIRSRPPRLPRPRPRPSIQPRP", "shrunken log2 fold change": -0.497}, {"sequence": "RRIRSRPPRLPRPRPRPTDMPRP", "shrunken log2 fold change": 0.0156}, {"sequence": "RRIRPRPPRLPRPRPRPCAWPRP", "shrunken log2 fold change": 0.0868}, {"sequence": "RRIRKRPPRLPRPRPRPVLYPRP", "shrunken log2 fold change": -0.0796}, {"sequence": "RRIRWRPPRLPRPRPRPKCMPRP", "shrunken log2 fold change": 0.531}, {"sequence": "RRIRDRPPRLPRPRPRPQDRPRP", "shrunken log2 fold change": -0.0933}, {"sequence": "RRIRPRPPRLPRPRPRPVNRPRP", "shrunken log2 fold change": -0.0842}, {"sequence": "RRIRFRPPRLPRPRPRPPATPRP", "shrunken log2 fold change": 0.562}, {"sequence": "RRIRYRPPRLPRPRPRPHANPRP", "shrunken log2 fold change": -0.16}, {"sequence": "RRIRSRPPRLPRPRPRPSCMPRP", "shrunken log2 fold change": -0.129}, {"sequence": "RRIRSRPPRLPRPRPRPCTMPRP", "shrunken log2 fold change": -0.154}, {"sequence": "RRIRDRPPRLPRPRPRPHFVPRP", "shrunken log2 fold change": -0.193}, {"sequence": "RRIRCRPPRLPRPRPRPSLLPRP", "shrunken log2 fold change": -0.386}, {"sequence": "RRIRYRPPRLPRPRPRPGMYPRP", "shrunken log2 fold change": -1.44}]}]}
